The values below come from patent US20200199241A1 (Chugai, published 2020).

Where a chain is given by its changes, count along the chain named.

The labels stand for the following.
T1: FcγRIIa type H (human, UniProt P12318 36-217)
T1 construct: also called FcγRIIaH; FcγRIIH
T1 sequence: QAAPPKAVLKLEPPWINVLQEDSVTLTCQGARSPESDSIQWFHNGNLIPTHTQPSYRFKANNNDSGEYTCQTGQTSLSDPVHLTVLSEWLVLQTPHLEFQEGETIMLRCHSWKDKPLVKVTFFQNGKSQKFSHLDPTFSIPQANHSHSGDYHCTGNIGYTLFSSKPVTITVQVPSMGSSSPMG

T2: FcγRIIb (human, UniProt P31994 43-217, limits assumed)
T2 construct: also called FcgRIIb; FcγIIB
T2 sequence: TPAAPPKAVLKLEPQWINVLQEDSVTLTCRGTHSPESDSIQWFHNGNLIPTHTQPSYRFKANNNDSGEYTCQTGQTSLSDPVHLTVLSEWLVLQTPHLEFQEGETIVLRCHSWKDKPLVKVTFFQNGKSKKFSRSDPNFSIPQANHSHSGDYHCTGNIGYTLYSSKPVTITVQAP

B1: IL6R-2B253/IL6R-L (antibody, human IgG1)
heavy: QVQLQESGPGLVKPSETLSLTCAVSGHSISHDHAWSWVRQPPGEGLEWIGFISYSGITNYNPSLQGRVTISRDNSKNTLYLQMNSLRAEDTAVYYCARSLARTTAMDYWGEGTLVTVSSASTKGPSVFPLAPSSKSTSGGTAALGCLVKDYFPEPVTVSWNSGALTSGVHTFPAVLQSSGLYSLSSVVTVPSSSLGTQTYICNVNHKPSNTKVDKKVEPKSCDKTHTCPPCPAPDLLGGDSVFLFPPKPKDTLMISRTPEVTCVVVDVSHEDPEVKFNWYVDGVEVHNAKTKPREEQYNSTYRVVSVLTVLHQDWLNGKEYKCKMSNKALPAPIEKTISKAKGQPREPQVYTLPPSRDELTKNQVSLTCLVKGFYPSDIAVEWESNGQPENNYKTTPPVLDSDGSFFLYSKLTVDKSRWQQGNVFSCSVMHEALHNHYTQESLSLSP
light: DIQMTQSPSSLSASVGDRVTITCRASQDISSYLNWYQQKPGKAPKLLIYYTSRLHSGVPSRFSGSGSGTDFTFTISSLQPEDIATYYCQQGNTLPYTFGQGTKVEIK
notes: IgG1; Fc variant of IL6R-B3; copies: 2 + 2
B2: IL6R-BP083/IL6R-L (antibody, human IgG1)
heavy: B1 heavy with D235E, Y298D, M325V, A332K
light: B1 light
notes: as for B1
B3: IL6R-BP131/IL6R-L (antibody, human IgG1)
heavy: B1 heavy with G239D, M325V, A332K
light: B1 light
notes: as for B1
B4: IL6R-BP181/IL6R-L (antibody, human IgG1)
heavy: B1 heavy with P273G, M325V, K328A, A332K
light: B1 light
notes: as for B1
B5: IL6R-BP087/IL6R-L (antibody, human IgG1)
heavy: B1 heavy with D235E, L236Y, M325V, A332K
light: B1 light
notes: as for B1
B6: IL6R-BP205/IL6R-L (antibody, human IgG1)
heavy: B1 heavy with P273G, Y298D, M325V, A332R
light: B1 light
notes: as for B1
B7: IL6R-BP178/IL6R-L (antibody, human IgG1)
heavy: B1 heavy with G239D, P273G, M325V, A332K
light: B1 light
notes: as for B1
B8: IL6R-BP193/IL6R-L (antibody, human IgG1)
heavy: B1 heavy with H270D, P273G, M325V, A332K
light: B1 light
notes: as for B1
B9: IL6R-BP190/IL6R-L (antibody, human IgG1)
heavy: B1 heavy with D235E, G239D, H270D, P273G, M325V, A332K
light: B1 light
notes: as for B1
B10: IL6R-BP195/IL6R-L (antibody, human IgG1)
heavy: B1 heavy with L236Y, G239D, H270D, P273G, Y298D, M325V, K328A, A332K
light: B1 light
notes: as for B1
B11: IL6R-BP086/IL6R-L (antibody, human IgG1)
heavy: B1 heavy with D235E, M325V, K328A, A332K
light: B1 light
notes: as for B1
B12: IL6R-BP176/IL6R-L (antibody, human IgG1)
heavy: B1 heavy with M325V, K328D, A332K
light: B1 light
notes: as for B1
B13: IL6R-BP082/IL6R-L (antibody, human IgG1)
heavy: B1 heavy with M325V, A332K
light: B1 light
notes: as for B1
B14: IL6R-BP191/IL6R-L (antibody, human IgG1)
heavy: B1 heavy with H270D, P273G, M325V, K328A, A332K
light: B1 light
notes: as for B1
B15: IL6R-BP085/IL6R-L (antibody, human IgG1)
heavy: B1 heavy with D235E, G239D, M325V, A332K
light: B1 light
notes: as for B1
B16: IL6R-BP202/IL6R-L (antibody, human IgG1)
heavy: B1 heavy with D235E, G239D, P273G, M325V, K328A, A332R
light: B1 light
notes: as for B1
B17: IL6R-BP212/IL6R-L (antibody, human IgG1)
heavy: B1 heavy with H270D, P273G, Y298D, M325V, A332R
light: B1 light
notes: as for B1
B18: IL6R-BP210/IL6R-L (antibody, human IgG1)
heavy: B1 heavy with D235E, G239D, H270D, P273G, M325V, A332R
light: B1 light
notes: as for B1
B19: IL6R-BP152/IL6R-L (antibody, human IgG1)
heavy: B1 heavy with L236Y, G239D, Y298D, M325V, K328A, A332R
light: B1 light
notes: as for B1
B20: IL6R-BP201/IL6R-L (antibody, human IgG1)
heavy: B1 heavy with G239D, P273G, M325V, A332R
light: B1 light
notes: as for B1
B21: IL6R-BP084/IL6R-L (antibody, human IgG1)
heavy: B1 heavy with D235E, A332K
light: B1 light
notes: as for B1
B22: IL6R-BP151/IL6R-L (antibody, human IgG1)
heavy: B1 heavy with L236Y, G239D, M325V, K328A, A332R
light: B1 light
notes: as for B1
B23: IL6R-2B261/IL6R-L (antibody, human IgG1)
heavy: B1 heavy with Y298D, M325V
light: B1 light
notes: as for B1
B24: IL6R-BP211/IL6R-L (antibody, human IgG1)
heavy: B1 heavy with H270D, P273G, M325V, K328A, A332R
light: B1 light
notes: as for B1
B25: IL6R-BP188/IL6R-L (antibody, human IgG1)
heavy: B1 heavy with G239D, H270D, P273G, M325V, A332K
light: B1 light
notes: as for B1

T3 sequence (P12314 16-292 limits assumed): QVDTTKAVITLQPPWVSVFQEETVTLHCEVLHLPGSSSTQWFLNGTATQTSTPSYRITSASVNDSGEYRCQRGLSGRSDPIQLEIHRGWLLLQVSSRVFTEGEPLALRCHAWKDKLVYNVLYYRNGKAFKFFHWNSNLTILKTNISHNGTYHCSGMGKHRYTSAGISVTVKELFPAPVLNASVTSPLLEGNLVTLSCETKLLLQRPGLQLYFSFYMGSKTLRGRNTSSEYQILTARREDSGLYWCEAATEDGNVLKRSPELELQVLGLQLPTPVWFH

The target of the first assay is T1, FcγRIIa type H. Kind of assay: SPR (Biacore), bound amount, IL6R-BF648/IL6R-L = 100. (In general: In SPR one partner is held on a chip, and binding of the other changes the refractive index at the surface.)
Experimental: (§1) According to the following method, relative binding activities were calculated for the results of analyzing interactions with the respective FcγRs.
Turning to B1, the relative binding activity is 207 % of control.

With B2, the relative binding activity is 91 % of control.

Turning to B3, the relative binding activity is 253 % of control.

On to B4, for which the relative binding activity was 150 % of control.

For the molecule B5, the relative binding activity is 179 % of control.

In the case of B6, the relative binding activity was 108 % of control.

For B7, the relative binding activity was 259 % of control.

For B8, the relative binding activity was 154 % of control.

Regarding B9, the relative binding activity was 224 % of control.

Regarding B10, the relative binding activity was 344 % of control.

In the case of B11, the relative binding activity was 116 % of control.

For the molecule B12, the relative binding activity is 128 % of control.

As to B13, the relative binding activity is 106 % of control.

Take B14: the relative binding activity was 145 % of control.

For the molecule B15, the relative binding activity was 158 % of control.

With B16, the relative binding activity is 285 % of control.

For the molecule B17, the relative binding activity is 135 % of control.

In the case of B18, the relative binding activity is 279 % of control.

For B19, the relative binding activity was 548 % of control.

Turning to B20, the relative binding activity was 359 % of control.

B21: the relative binding activity is 162 % of control.

Consider B22, for which the relative binding activity was 621 % of control.

On to B23, for which the relative binding activity is 91 % of control.

Another assay addresses T3, FcγRIa (human, UniProt P12314 16-292, limits assumed).
T3 construct: also called FcgRIa; CD64
The description is as above.
Experimental: as §1
With B1, the relative binding activity is 155 % of control.

Consider B2, for which the relative binding activity is 50 % of control.

For B3, the relative binding activity was 33 % of control.

Turning to B5, the relative binding activity is 33 % of control.

For the molecule B6, the relative binding activity is 97 % of control.

As for B7, the relative binding activity is 51 % of control.

As for B8, the relative binding activity was 113 % of control.

Regarding B9, the relative binding activity is 50 % of control.

On to B10, for which the relative binding activity was 66 % of control.

Turning to B11, the relative binding activity was 72 % of control.

In the case of B24, the relative binding activity is 128 % of control.

On to B25, for which the relative binding activity is 74 % of control.

For B12, the relative binding activity is 102 % of control.

Turning to B13, the relative binding activity is 74 % of control.

As for B14, the relative binding activity is 125 % of control.

In the case of B15, the relative binding activity is 19 % of control.

On to B16, for which the relative binding activity was 43 % of control.

B17: the relative binding activity was 117 % of control.

On to B18, for which the relative binding activity is 57 % of control.

As for B19, the relative binding activity was 34 % of control.

With B20, the relative binding activity was 57 % of control.

For the molecule B21, the relative binding activity is 109 % of control.

Consider B22, for which the relative binding activity was 39 % of control.

Consider B23, for which the relative binding activity was 100 % of control.

For the next assay, the target named is T2, FcγRIIb. The description is as above.
Experimental: as §1
B1: the relative binding activity was 156 % of control.

Take B2: the relative binding activity is 122 % of control.

Consider B5, for which the relative binding activity was 137 % of control.

In the case of B6, the relative binding activity was 167 % of control.

Regarding B7, the relative binding activity is 179 % of control.

For B8, the relative binding activity is 173 % of control.

In the case of B11, the relative binding activity was 137 % of control.

Turning to B24, the relative binding activity was 165 % of control.

For the molecule B25, the relative binding activity is 179 % of control.

For B12, the relative binding activity was 147 % of control.

For the molecule B13, the relative binding activity was 136 % of control.

For the molecule B15, the relative binding activity was 152 % of control.

Regarding B16, the relative binding activity was 185 % of control.

On to B17, for which the relative binding activity was 173 % of control.

Take B18: the relative binding activity is 187 % of control.

For B19, the relative binding activity is 178 % of control.

As to B20, the relative binding activity is 186 % of control.

For B21, the relative binding activity was 141 % of control.

Regarding B23, the relative binding activity is 115 % of control.

For another assay, the target named is T4, FcγRIIIa type V (human, UniProt P08637 17-208, limits assumed).
T4 construct: also called FcγRIIIaV; FcgRIIIaV
T4 sequence (P08637 other isoform, or with tags, fused parts or gaps limits assumed): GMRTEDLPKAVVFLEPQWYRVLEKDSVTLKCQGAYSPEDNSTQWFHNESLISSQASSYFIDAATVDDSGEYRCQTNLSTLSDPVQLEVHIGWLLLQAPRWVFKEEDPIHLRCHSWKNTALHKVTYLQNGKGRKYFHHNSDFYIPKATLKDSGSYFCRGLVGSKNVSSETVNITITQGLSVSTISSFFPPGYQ
The description is as above.
Experimental: as §1
As to B1, the relative binding activity was 126 % of control.

Turning to B2, the relative binding activity is 107 % of control.

For the molecule B3, the relative binding activity is 118 % of control.

For the molecule B4, the relative binding activity is 122 % of control.

On to B5, for which the relative binding activity is 158 % of control.

For the molecule B9, the relative binding activity was 155 % of control.

Consider B10, for which the relative binding activity was 221 % of control.

Turning to B11, the relative binding activity was 123 % of control.

As for B24, the relative binding activity is 87 % of control.

Turning to B13, the relative binding activity is 67 % of control.

Consider B14, for which the relative binding activity was 142 % of control.

Turning to B15, the relative binding activity was 104 % of control.

As for B21, the relative binding activity was 106 % of control.

For B22, the relative binding activity was 221 % of control.

Take B23: the relative binding activity is 87 % of control.
